Laboratory results as given in PMC7508256.

Key:
Assay in all cases: MST
[1] = target: T1, DF3 (YTHDF3) (UniProt Q7Z739 1-585)
T1 sequence: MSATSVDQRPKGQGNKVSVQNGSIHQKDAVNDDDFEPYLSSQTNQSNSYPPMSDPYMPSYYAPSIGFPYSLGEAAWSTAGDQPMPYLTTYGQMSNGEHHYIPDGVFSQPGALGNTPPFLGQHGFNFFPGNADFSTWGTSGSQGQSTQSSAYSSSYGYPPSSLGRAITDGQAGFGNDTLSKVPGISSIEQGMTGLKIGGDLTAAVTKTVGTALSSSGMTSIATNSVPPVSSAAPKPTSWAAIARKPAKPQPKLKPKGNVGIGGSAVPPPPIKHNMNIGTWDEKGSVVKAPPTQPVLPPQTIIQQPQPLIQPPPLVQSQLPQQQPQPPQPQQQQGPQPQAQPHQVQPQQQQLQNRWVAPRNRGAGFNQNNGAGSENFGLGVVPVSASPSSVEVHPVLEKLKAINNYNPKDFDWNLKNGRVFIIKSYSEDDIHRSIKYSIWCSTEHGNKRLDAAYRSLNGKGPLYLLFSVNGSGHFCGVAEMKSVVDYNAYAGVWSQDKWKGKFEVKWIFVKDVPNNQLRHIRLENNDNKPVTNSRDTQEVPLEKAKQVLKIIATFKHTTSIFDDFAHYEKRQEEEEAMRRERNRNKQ

[2] = target: T2, DF2 (YTHDF2) (UniProt Q9Y5A9 1-579)
T2 sequence: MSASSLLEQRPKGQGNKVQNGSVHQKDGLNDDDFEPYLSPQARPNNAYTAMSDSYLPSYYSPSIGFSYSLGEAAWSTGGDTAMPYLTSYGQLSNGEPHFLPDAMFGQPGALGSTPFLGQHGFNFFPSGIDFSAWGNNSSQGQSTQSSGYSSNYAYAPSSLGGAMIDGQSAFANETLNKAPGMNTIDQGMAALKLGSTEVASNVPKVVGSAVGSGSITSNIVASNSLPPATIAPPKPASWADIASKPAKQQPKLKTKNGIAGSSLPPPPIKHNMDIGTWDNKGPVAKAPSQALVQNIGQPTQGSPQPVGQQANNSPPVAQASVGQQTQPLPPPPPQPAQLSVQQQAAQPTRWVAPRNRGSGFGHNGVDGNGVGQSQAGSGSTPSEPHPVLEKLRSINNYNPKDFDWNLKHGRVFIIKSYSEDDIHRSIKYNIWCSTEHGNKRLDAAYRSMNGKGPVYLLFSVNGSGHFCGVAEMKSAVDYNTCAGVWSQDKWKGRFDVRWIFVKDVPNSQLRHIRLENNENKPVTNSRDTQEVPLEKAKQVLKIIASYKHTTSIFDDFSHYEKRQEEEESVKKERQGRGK

[3] = target: T3, DF1 (YTHDF1) (UniProt Q9BYJ9 1-559)
T3 sequence: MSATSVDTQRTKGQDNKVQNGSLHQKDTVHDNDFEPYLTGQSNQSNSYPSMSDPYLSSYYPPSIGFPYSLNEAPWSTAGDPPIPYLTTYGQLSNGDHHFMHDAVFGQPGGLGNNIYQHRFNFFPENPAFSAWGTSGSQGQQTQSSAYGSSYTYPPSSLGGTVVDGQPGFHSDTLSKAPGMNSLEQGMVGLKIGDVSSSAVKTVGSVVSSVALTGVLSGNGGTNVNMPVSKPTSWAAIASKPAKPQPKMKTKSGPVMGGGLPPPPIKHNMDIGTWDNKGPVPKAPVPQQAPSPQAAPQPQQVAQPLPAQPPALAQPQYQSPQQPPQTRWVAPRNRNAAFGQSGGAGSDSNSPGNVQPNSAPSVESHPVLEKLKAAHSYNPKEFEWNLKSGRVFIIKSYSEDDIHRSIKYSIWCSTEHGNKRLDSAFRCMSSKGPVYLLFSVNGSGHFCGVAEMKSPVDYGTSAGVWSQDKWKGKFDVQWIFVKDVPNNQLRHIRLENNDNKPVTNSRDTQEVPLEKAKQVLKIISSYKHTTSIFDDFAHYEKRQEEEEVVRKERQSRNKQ

Measured: binding result

UCCGGACUGU (ssRNA, N6-methyladenosine at position 6) [m6A-modified RNA]
binds: all assays above
